Test results taken from the Immune Epitope Database (IEDB).

Tests used:
Test in all cases: IEDB peptide-MHC binding, purified MHC/competitive/radioactivity; filed as Kd, often an IC50 or EC50 that approximates it; ≥ and ≤ were set here for values at or beyond the usual limits of such assays
HLA-A*31:01 = molecular target: HLA-A*31:01
HLA-A*11:01 = molecular target: HLA-A*11:01
HLA-A*68:01 = molecular target: HLA-A*68:01
HLA-A*03:01 = molecular target: HLA-A*03:01
HLA-A*33:01 = molecular target: HLA-A*33:01
[1] = source organism: Vaccinia virus WR
[2] = source organism: SARS coronavirus Tor2
[3] = source organism: Lassa virus Josiah
[4] = source organism: Dengue virus 4 Philippines/H241/1956
[5] = source organism: Dengue virus 2 Jamaica/1409/1983
[6] = source organism: Dengue virus 3 Sri Lanka/1266/2000
[7] = source organism: Dengue virus 3 Martinique/1243/1999
[8] = source organism: Mammarenavirus juninense

AAISKLGINY
Kd (HLA-A*31:01; [1]): 1400 nM
Kd (HLA-A*11:01; [1]): 357 nM
Kd (HLA-A*68:01; [1]): 279 nM
Kd (HLA-A*03:01; [1]): 320 nM
Kd (HLA-A*33:01; [1]): 1210 nM

AFDAPTLYVK
Kd (HLA-A*31:01; [1]): 3840 nM
Kd (HLA-A*11:01; [1]): 271 nM
Kd (HLA-A*68:01; [1]): 134 nM
Kd (HLA-A*03:01; [1]): 2280 nM
Kd (HLA-A*33:01; [1]): ≥ 56000 nM

AIMQVFFGY
Kd (HLA-A*31:01; [2]): 452 nM
Kd (HLA-A*11:01; [2]): 1.39 nM
Kd (HLA-A*68:01; [2]): 191 nM
Kd (HLA-A*03:01; [2]): 0.695 nM
Kd (HLA-A*33:01; [2]): 1400 nM

AITDNGPMPY
Kd (HLA-A*31:01; [1]): ≥ 60000 nM
Kd (HLA-A*11:01; [1]): 340 nM
Kd (HLA-A*68:01; [1]): ≥ 23500 nM
Kd (HLA-A*03:01; [1]): 251 nM
Kd (HLA-A*33:01; [1]): ≥ 49600 nM

ALMSIISTFH
Kd (HLA-A*03:01; [3]): 617 nM
Kd (HLA-A*33:01; [3]): 3610 nM

ASGQRCHFIK
Kd (HLA-A*31:01; [1]): 1470 nM
Kd (HLA-A*11:01; [1]): 12.5 nM
Kd (HLA-A*68:01; [1]): 5130 nM
Kd (HLA-A*03:01; [1]): 927 nM
Kd (HLA-A*33:01; [1]): ≥ 63300 nM

ASNAPSAAK
Kd (HLA-A*11:01; source organism: Homo sapiens): 14 nM

ATFIDVHIPK
Kd (HLA-A*31:01; [1]): 915 nM
Kd (HLA-A*11:01; [1]): 0.269 nM
Kd (HLA-A*68:01; [1]): 3.44 nM
Kd (HLA-A*03:01; [1]): 9.21 nM
Kd (HLA-A*33:01; [1]): 43.4 nM

AVMDIISRK
Kd (HLA-A*11:01; [4]): 107 nM
Kd (HLA-A*03:01; [4]): 4.94 nM

CVTQVLMMR
Kd (HLA-A*68:01; [5]): 100 nM
Kd (HLA-A*33:01; [5]): 350 nM

DIISRRDQR
Kd (HLA-A*68:01; [5]): 36.1 nM
Kd (HLA-A*33:01; [5]): 105 nM

DMMLMIGNY
Kd (HLA-A*31:01; [1]): 11000 nM
Kd (HLA-A*11:01; [1]): 12700 nM
Kd (HLA-A*68:01; [1]): 780 nM
Kd (HLA-A*03:01; [1]): ≥ 47700 nM
Kd (HLA-A*33:01; [1]): 3820 nM

DMSHLKVALY
Kd (HLA-A*31:01; [1]): 768 nM
Kd (HLA-A*11:01; [1]): 3950 nM
Kd (HLA-A*68:01; [1]): 854 nM
Kd (HLA-A*03:01; [1]): 1810 nM
Kd (HLA-A*33:01; [1]): 14700 nM

DTDIFSPENK
Kd (HLA-A*31:01; [1]): ≥ 22500 nM
Kd (HLA-A*11:01; [1]): 1680 nM
Kd (HLA-A*68:01; [1]): 42.2 nM
Kd (HLA-A*03:01; [1]): 5880 nM
Kd (HLA-A*33:01; [1]): 16800 nM

DYMPSMKRFR
Kd (HLA-A*31:01; [5]): 43.5 nM
Kd (HLA-A*33:01; [5]): 1.97 nM

EIINFTISMR
Kd (HLA-A*31:01; [1]): 428 nM
Kd (HLA-A*11:01; [1]): 2020 nM
Kd (HLA-A*68:01; [1]): 1.12 nM
Kd (HLA-A*03:01; [1]): 1610 nM
Kd (HLA-A*33:01; [1]): 7.83 nM

EINKNPKYK
Kd (HLA-A*03:01; source organism: Homo sapiens): 753 nM

ETTHHAVSR
Kd (HLA-A*68:01; [6]): 19 nM
Kd (HLA-A*33:01; [6]): 4.66 nM

ETVKMGAFMY
Kd (HLA-A*31:01; [1]): ≥ 31500 nM
Kd (HLA-A*11:01; [1]): 1570 nM
Kd (HLA-A*68:01; [1]): 61.6 nM
Kd (HLA-A*03:01; [1]): ≥ 70100 nM
Kd (HLA-A*33:01; [1]): ≥ 70000 nM

EVMRGKFGK
Kd (HLA-A*11:01; [7]): 850 nM
Kd (HLA-A*68:01; [7]): 55.7 nM

FFLIVLLIPE
Kd (HLA-A*33:01; [5]): 327 nM

FIFSALDEK
Kd (HLA-A*31:01; [1]): ≥ 49200 nM
Kd (HLA-A*11:01; [1]): 65.1 nM
Kd (HLA-A*68:01; [1]): 24.5 nM
Kd (HLA-A*03:01; [1]): 156 nM
Kd (HLA-A*33:01; [1]): ≥ 66800 nM

FIRRKYLIY
Kd (HLA-A*31:01; [1]): ≥ 77900 nM
Kd (HLA-A*11:01; [1]): ≥ 26900 nM
Kd (HLA-A*68:01; [1]): ≥ 53500 nM
Kd (HLA-A*03:01; [1]): 1500 nM
Kd (HLA-A*33:01; [1]): ≥ 52400 nM

GIALGLMALK
Kd (HLA-A*03:01; [7]): 219 nM

GKQYIHCFRK
Kd (HLA-A*31:01; [8]): 3670 nM
Kd (HLA-A*11:01; [8]): 1510 nM
Kd (HLA-A*68:01; [8]): 1730 nM
Kd (HLA-A*03:01; [8]): 2210 nM
Kd (HLA-A*33:01; [8]): ≥ 29500 nM

GSCVYNMMGK
Kd (HLA-A*11:01; [7]): 25.8 nM
Kd (HLA-A*03:01; [7]): 104 nM

GSQLAKRFSK
Kd (HLA-A*11:01; source organism: Dengue virus 1 Brazil/97-11/1997): 108 nM

GTSWFITQR
Kd (HLA-A*31:01; [2]): 8.28 nM
Kd (HLA-A*11:01; [2]): 6.53 nM
Kd (HLA-A*68:01; [2]): 13 nM
Kd (HLA-A*03:01; [2]): 318 nM
Kd (HLA-A*33:01; [2]): 1240 nM

HMFAGHLKCK
Kd (HLA-A*03:01; [4]): 7.4 nM

HQNSKKTTK
Kd (HLA-A*31:01; [2]): 1980 nM
Kd (HLA-A*11:01; [2]): 2080 nM
Kd (HLA-A*68:01; [2]): ≥ 77700 nM
Kd (HLA-A*03:01; [2]): 1100 nM
Kd (HLA-A*33:01; [2]): ≥ 77700 nM

HTTAFFNTCK
Kd (HLA-A*31:01; [1]): 113 nM
Kd (HLA-A*11:01; [1]): 1.46 nM
Kd (HLA-A*68:01; [1]): 2.13 nM
Kd (HLA-A*03:01; [1]): 183 nM
Kd (HLA-A*33:01; [1]): 14000 nM

IAHINTLIQY
Kd (HLA-A*31:01; [1]): 8780 nM
Kd (HLA-A*11:01; [1]): 975 nM
Kd (HLA-A*68:01; [1]): 1510 nM
Kd (HLA-A*03:01; [1]): 383 nM
Kd (HLA-A*33:01; [1]): 6860 nM

IFSPENKAFK
Kd (HLA-A*31:01; [1]): 699 nM
Kd (HLA-A*11:01; [1]): 756 nM
Kd (HLA-A*68:01; [1]): 184 nM
Kd (HLA-A*03:01; [1]): 96.4 nM
Kd (HLA-A*33:01; [1]): 2470 nM

IINNAVYTK
Kd (HLA-A*31:01; [2]): 114 nM
Kd (HLA-A*11:01; [2]): 17.1 nM
Kd (HLA-A*68:01; [2]): 484 nM
Kd (HLA-A*03:01; [2]): 37.5 nM
Kd (HLA-A*33:01; [2]): 19500 nM

ILARNEEGR
Kd (HLA-A*31:01; [1]): 4570 nM
Kd (HLA-A*11:01; [1]): ≥ 77900 nM
Kd (HLA-A*68:01; [1]): 87 nM
Kd (HLA-A*03:01; [1]): 16600 nM
Kd (HLA-A*33:01; [1]): 1050 nM

IMEIVSHLR
Kd (HLA-A*31:01; [1]): 11.9 nM
Kd (HLA-A*11:01; [1]): 219 nM
Kd (HLA-A*68:01; [1]): 3.25 nM
Kd (HLA-A*03:01; [1]): 1960 nM
Kd (HLA-A*33:01; [1]): 53.3 nM

IMSIGFEAR
Kd (HLA-A*31:01; [1]): 30.3 nM
Kd (HLA-A*11:01; [1]): 3140 nM
Kd (HLA-A*68:01; [1]): 221 nM
Kd (HLA-A*03:01; [1]): 4950 nM
Kd (HLA-A*33:01; [1]): 367 nM

IMSMMNITR
Kd (HLA-A*31:01; [1]): 517 nM
Kd (HLA-A*11:01; [1]): 61.2 nM
Kd (HLA-A*68:01; [1]): 29.9 nM
Kd (HLA-A*03:01; [1]): 870 nM
Kd (HLA-A*33:01; [1]): 4.04 nM

ISDNKKEYK
Kd (HLA-A*31:01; [1]): 1820 nM
Kd (HLA-A*11:01; [1]): 359 nM
Kd (HLA-A*68:01; [1]): 3420 nM
Kd (HLA-A*03:01; [1]): 1990 nM
Kd (HLA-A*33:01; [1]): 10500 nM

KFISDNKKEY
Kd (HLA-A*31:01; [1]): 427 nM
Kd (HLA-A*11:01; [1]): ≥ 69800 nM
Kd (HLA-A*68:01; [1]): ≥ 40700 nM
Kd (HLA-A*03:01; [1]): ≥ 70100 nM
Kd (HLA-A*33:01; [1]): ≥ 70000 nM

KIDKLTFQIY
Kd (HLA-A*31:01; [1]): 3410 nM
Kd (HLA-A*11:01; [1]): 17500 nM
Kd (HLA-A*68:01; [1]): 1480 nM
Kd (HLA-A*03:01; [1]): 1270 nM
Kd (HLA-A*33:01; [1]): 13000 nM

KIMEIVSHLR
Kd (HLA-A*31:01; [1]): 0.559 nM
Kd (HLA-A*11:01; [1]): 3.61 nM
Kd (HLA-A*68:01; [1]): 2.42 nM
Kd (HLA-A*03:01; [1]): 73 nM
Kd (HLA-A*33:01; [1]): 63.5 nM
